These results are taken from the nanobody polyreactivity screen of Harvey et al. (2022).

The nature of this data set: yeast display, Sf9 membrane polyspecificity reagent, FACS + sequencing; frameworks hold sequencing errors. In outline: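 A synthetic nanobody library was expressed on Saccharomyces cerevisiae BJ5465 by galactose induction for 36–48 hours. The library was stained for 1 hour at 4 °C with 10% biotinylated, detergent-solubilized Sf9 membrane reagent and enriched with streptavidin microbeads before FACS. Low and high (top ~1%) gates were set on anti-HA fluorescence for expression and streptavidin fluorescence for reagent binding, and each polyreactivity label reflects the gate of origin.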
In the case of “QVQLVESGGGLVQAGGSLRLSCAASGRIFVTYVMGWYRQAPGKERELVAAISRRGGTTYYADSVKGRFTISRDNAKNTVYLQMNSLKPEDTAVYYCNVARDYAVESGYWGQGTQVTVSS”, the “polyreactivity (PSR sort gate)” value is “high polyreactivity”.

With “QVQLVESGGGLVQAGGSLRLSCAASGRIFVVNAMGWYRQAPGKESELVAAITRRGGSTYADSVKGRFTISRDNAKNTLYIQMTSLKPEDTAVYYCNAESDFGIFRYKYDYWGQCTQVTVSS”, the “polyreactivity (PSR sort gate)” value is reported as “high polyreactivity”.

“QVQLVESGGGLVQAGGSLRLSCAASGRIFVYNAMGWYRQAPGKERELVAAITRGCSTYYADSVKGRFTISRDNAKNTVYLQMNSLKPEDTAVYYCASDYQRNDFRWYDYWGQGTQVTVSS”: the “polyreactivity (PSR sort gate)” value is recorded as “low polyreactivity”.

In the case of “QVQLVESGGGLVQAGGSLRLSCAASGRIFVYNAMGWYRQAPGKERELVATITSGGSTYYADSVKGRFTISRDNAKNTVYLQMNSLKPEDTAVYYCAARRWYVHYFAYGYWGQRTQVTVSS”, the “polyreactivity (PSR sort gate)” value is listed as “low polyreactivity”.

On to “QVQLVESGGGLVQAGGSLRLSCAASGRIFVYNAMGWYRQAPGKERQLVAAIRNDGSTNYADSVKGRFTISRDNAKNTVYLLMNSLKPEDTAVYYCAKSVTGWRGLWYTPRNYYWGQGTQVTVSS”, for which the “polyreactivity (PSR sort gate)” value is “high polyreactivity”.

As to “QVQLVESGGGLVQAGGSLRLSCAASGRIFVYNVMGRYRQAPGKERELVAAISWGTGSTYADSVKGRFTISRDNAKNTVYLQMNSLKPEDTAVYYCAADSFIPPYDHWGQGTQVTVSS”, the “polyreactivity (PSR sort gate)” value is reported as “low polyreactivity”.

With “QVQLVESGGGLVQAGGSLRLSCAASGRIFVYNVMGWYRQAPGKERELVAAISWGTGSTYADSVKGRFTISRDNAKNSVNLQMNSLKPDDTAVYYCAKESTVRRYDYWGLGTQVTVSS”, the “polyreactivity (PSR sort gate)” value was “low polyreactivity”.

In the case of “QVQLVESGGGLVQAGGSLRLSCAASGRIFVYYAMGWNRQAPGKERELVAAISSSGGSTYYADSVKGRFTISRDNAKNTVYLQMNSLKPEDTAVYYCNAVTSVQARPRNYYYWGQGTQVTVSS”, the “polyreactivity (PSR sort gate)” value was “high polyreactivity”.

With “QVQLVESGGGLVQAGGSLRLSCAASGRIFVYYAMGWYRQAPGKEREFVAAITDSGGGTYYADSVKGRFTISRDNAKNTVYLQMNSLKPEDTAVYYCAKRFGQYRYPYDYWGQGTQVTVSS”, the “polyreactivity (PSR sort gate)” value was “high polyreactivity”.

As for “QVQLVESGGGLVQAGGSLRLSCAASGRIFVYYAMGWYRQAPGKERELVAAITYSVDSTYYADSVKGRFTISRDNAKNTVYLQMNSLKPEDTAVYYCATDVDLAYGYQYEYWGQGTQVTVSS”, the “polyreactivity (PSR sort gate)” value is listed as “low polyreactivity”.

In the case of “QVQLVESGGGLVQAGGSLRLSCAASGRIFVYYAMGWYRQAPGKERELVAAITYSVDSTYYADSVKGRFTISRDNAKNTVYLQMNSLKPEDTAVYYCATDVDWAYGYQYEYWGQGTQVTVSS”, the “polyreactivity (PSR sort gate)” value is “low polyreactivity”.

As for “QVQLVESGGGLVQAGGSLRLSCAASGRIFVYYVMGWYRQAPGKERELVASITFRGSRTYYADSVKGRFTISRDNAKNTVYLQMNSLKPEDTAVDYCNADVWASGSRGEGYWGQGTQVTVSS”, the “polyreactivity (PSR sort gate)” value was “low polyreactivity”.

For “QVQLVESGGGLVQAGGSLRLSCAASGRIFWANAMGWYRQAPGKERELVAAISYSGVSTYYADSVKGRFTISRDNAKNTVYLQMNSLKPEDTAVYFCAADRYRKYYYWGQGTQVTVSS”, the “polyreactivity (PSR sort gate)” value is “high polyreactivity”.

For the sequence “QVQLVESGGGLVQAGGSLRLSCAASGRIFWANAMGWYRQATGKERELVAAITGSGRTYYADSVKGRFTISRDNAKNTVYLQMISLKREDTAVYYCAAVTYYELAQGYGYWGQGTQVTVSS”, the “polyreactivity (PSR sort gate)” value is “high polyreactivity”.

For “QVQLVESGGGLVQAGGSLRLSCAASGRIFWAYTMGWYRQAPGKERELVAAITGSGGSTYYADSVKGRFTISRDNAKNTVYLQMNSLKPEDTAVYYCAADIGYIRLPRGREYDYWGQGTEVTVSS”, the “polyreactivity (PSR sort gate)” value is recorded as “high polyreactivity”.

With “QVQLVESGGGLVQAGGSLRLSCAASGRIFWDNAMGWYRQAPGKERELVAAISDSVVITYYADSVKGRFTISRDNAKNTVYLQMNSLKPEDTAVYYCAADKRGTVYLSSFWMDYWGQGTQVTVSS”, the “polyreactivity (PSR sort gate)” value is listed as “low polyreactivity”.

For the sequence “QVQLVESGGGLVQAGGSLRLSCAASGRIFWDNDMGWYRQAPGKERELVAAISRRGGSTSYADSVKGRFTISRDNAKNTVYLQMYSLKPEDTAVYYCIVRTRWTRVRRYDYWGQGTQVTVSS”, the “polyreactivity (PSR sort gate)” value is “high polyreactivity”.

Turning to “QVQLVESGGGLVQAGGSLRLSCAASGRIFWDYAMGWYRKAPGKERELVAVITFSGDSTYYADSVKGRFTISRDNAKNTVYLQMNSLKPEDTAVYYCAAARAIRQFWYVATFEYWGQGTQVTVSS”, the “polyreactivity (PSR sort gate)” value is “low polyreactivity”.

For the sequence “QVQLVESGGGLVQAGGSLRLSCAASGRIFWGYSMGWYRQAPGKERELVAAITSGGRTYYADSVKGRFTISRDNAKNTVYLQMNSLKPEDTAVYYCAAVYVPYYWLGRSRGLDYWGQGTQVTVSS”, the “polyreactivity (PSR sort gate)” value is reported as “high polyreactivity”.

For “QVQLVESGGGLVQAGGSLRLSCAASGRIFWINDMGWSRQAPGKERELVAAIRSIGGSTYYADSVKGRFTISRDNGKNTVYLQMNSLKPEDTAVYYCAAKSSPKVRGRYYYWGQGTQVTVSS”, the “polyreactivity (PSR sort gate)” value is “low polyreactivity”.

“QVQLVESGGGLVQAGGSLRLSCAASGRIFWNYAMGWYRQAPGKERELVAAITWSGGSTYADSVNGRFTISRDNAKYTVYLQMNSLKPEDTAEYYCAAAYASYKFDYWGQGTQVTVSS”: the “polyreactivity (PSR sort gate)” value is “low polyreactivity”.

In the case of “QVQLVESGGGLVQAGGSLRLSCAASGRIFWNYAMGWYSQAPGKERELVASINWSGGSTYYADSVKGRFTISRDNAKNTVYLQMNSLKPEDTAVYYCNKDGRVYLDHDYWGQGTQVTVSS”, the “polyreactivity (PSR sort gate)” value is reported as “low polyreactivity”.

In the case of “QVQLVESGGGLVQAGGSLRLSCAASGRIFWPYAMGWYRQAPGKERELVAVITSGTTTYYADSVKGRFTISRDNAKNTVYLKMNSLKPEDTAVYYCNIFSRARRYFEYDYWGQGTQVTVSS”, the “polyreactivity (PSR sort gate)” value is reported as “low polyreactivity”.

On to “QVQLVESGGGLVQAGGSLRLSCAASGRIFWPYTMGGYRQAPGKETELVAVITYSGGSTYYADSVKGRFTISRDNAKNTVYLQMNSLIPEDTEVYYCNAGIRFYLHAHGYYWGQGTQVTVSS”, for which the “polyreactivity (PSR sort gate)” value was “high polyreactivity”.

As for “QVQLVESGGGLVQAGGSLRLSCAASGRIFWRNAMGWYRQAPGKERELVAAISSGGSTYYADSVKGRFTISRDNAKNTVYFQMNSLKPEDTAVYYCAARSSWRGVRYDHFERDYWGQGTQVTVSS”, the “polyreactivity (PSR sort gate)” value was “high polyreactivity”.

In the case of “QVQLVESGGGLVQAGGSLRLSCAASGRIFWRNAMVWYRQAPGKERELVAAISGSGGSTSYADSVKGRFTISRDNAKNTVYLQMNSLKPEDTAVYYCAAKYYYNWHRQGYDYWGQGTQVTVSS”, the “polyreactivity (PSR sort gate)” value is on record as “high polyreactivity”.

For the sequence “QVQLVESGGGLVQAGGSLRLSCAASGRIFWRYAMGWYRQAPGKERELVAAISSGGSTTYADSVKGRFTISRDNAKNTVYLQMNSLKPEDTAVYYCNARQYTRPYAFDYWGQGTQVTVSS”, the “polyreactivity (PSR sort gate)” value is listed as “low polyreactivity”.

In the case of “QVQLVESGGGLVQAGGSLRLSCAASGRIFWRYAMGWYRQAPGKERELVAGISASGGSTFYADSVKGRFTISRDNAKNTVYLQMNSLKPEDTAVYYCAAVSRYIWYSARESYYWGQGTQVTVSS”, the “polyreactivity (PSR sort gate)” value is “high polyreactivity”.

Take “QVQLVESGGGLVQAGGSLRLSCAASGRIFWSYAMGWYRQAPGKEREFVAVITWSGGSTYYADSVKGRFTISRDNAKNTVYLQMNSLKPEDTAVYYCADGQWWYQVRFDYWGQGTQVTVSS”: the “polyreactivity (PSR sort gate)” value was “low polyreactivity”.

Turning to “QVQLVESGGGLVQAGGSLRLSCAASGRIFWSYAMGWYRQAPGKERELVAAINSGGSTNYADSVKGRFTISRDNAKNTVYLQMNSLKPEDTAVYYCAAGFYYVYVWLGEYWVQGTQVTVSS”, the “polyreactivity (PSR sort gate)” value was “low polyreactivity”.

“QVQLVESGGGLVQAGGSLRLSCAASGRIFWTNAMGWYRQAPGKERELVAAISYNGASTFYADSVKGRFTISRDNAKNTVYLQMNSLKPEDTAVYYCNAYSSRYRYNYWGQGTQVTVSS”: the “polyreactivity (PSR sort gate)” value is “high polyreactivity”.

Regarding “QVQLVESGGGLVQAGGSLRLSCAASGRIFWTYAMGWYRQAPGKERELVAAINSSGGTTYYADSVKGRFTISRDNAKNTVYLQMNSLKPEDTAVYYCSVRGRYYYRRPQISYDYGGQGTQVTVSS”, the “polyreactivity (PSR sort gate)” value was “low polyreactivity”.

Regarding “QVQLVESGGGLVQAGGSLRLSCAASGRIFWTYAMGWYRQAPGKERELVASITWSGGSTYYADSVKGRFTISRDNAKNTVYLQMNSLKPEDTAVYYCAADRHTYWYDYWGQGTQVTVSS”, the “polyreactivity (PSR sort gate)” value is on record as “low polyreactivity”.

For “QVQLVESGGGLVQAGGSLRLSCAASGRIFWVNVMGWYRQGPGKERELVAAITRGASTYADSVKGRFTISRDNAKNTVYLQLNSLKPEDTAVYYCAADSKRRSIRYDYWGQGTQVTVSS”, the “polyreactivity (PSR sort gate)” value is recorded as “high polyreactivity”.

Take “QVQLVESGGGLVQAGGSLRLSCAASGRIFWVYAMGWYRQAPGKERELVAAISLSGGRTYYADSVKGRFTISRDNAKNTVYLEMNSLKPEDTAVYYCNAVYPKRGGGRIVDYWGQGTQVTVSS”: the “polyreactivity (PSR sort gate)” value is given as “high polyreactivity”.

With “QVQLVESGGGLVQAGGSLRLSCAASGRIFWWYAMGWYRQAPGKERELVAVIDDSGGITYYADSVKGRFTISRDNAKNTVYLQRNSLKPEDTAVYYCANYYWGQGTQVTVSS”, the “polyreactivity (PSR sort gate)” value is “low polyreactivity”.

As to “QVQLVESGGGLVQAGGSLRLSCAASGRIFWWYTMGWSRQAPGKERELVAAISGSGGSTYYADSVKGRFTISRDNAKNTVYLQMNSLKPEDTAVYYCAAYHRRRATPIHSGEYGYWGQGTQVTVSS”, the “polyreactivity (PSR sort gate)” value is reported as “high polyreactivity”.

With “QVQLVESGGGLVQAGGSLRLSCAASGRIFWYNAMGWYRQAPGKERELVAVITSGTSTYYADSVKGRFTISRDNAKNTVYLQMNSLKPEDTAVYYCAARYLSRYSERHYYYWGQGTQVTVSS”, the “polyreactivity (PSR sort gate)” value is “high polyreactivity”.

Turning to “QVQLVESGGGLVQAGGSLRLSCAASGRIFWYNAMGWYRQAPGKQRELVAAITSGGRTYYADSVKGRFTISRDNAKNTVYLQMNSLKPEDTAVYYCAATYPSYTYDYWGQGTQVTVSS”, the “polyreactivity (PSR sort gate)” value is listed as “low polyreactivity”.

For the sequence “QVQLVESGGGLVQAGGSLRLSCAASGRIFWYNGKGWYRQAPGKERELVAAISYSGGSTNYADSVKGRFTISRDNAKNTVYLQMNSLKPEATAVYYCAAPVPTYHTAWRFFRPDYGYWGQGTQVTVSS”, the “polyreactivity (PSR sort gate)” value is on record as “high polyreactivity”.

As for “QVQLVESGGGLVQAGGSLRLSCAASGRIFWYNTMGWYRQAPGKERELVATITTGGRTNYADSVKGRFTISRDNAKNTVYLQMNSLKPEDTAVYYCNAVRGLWVTWRYYYWGQGTQVTVSS”, the “polyreactivity (PSR sort gate)” value is given as “high polyreactivity”.
